Measured values taken from the DeepSol protein solubility set.

Test: soluble on expression in E. coli; label from the status in PepcDB or PDB records

Row | Sequence | soluble on expression in E. coli
1 | MGSDKIHHHHHHMNNSLAFNHDTLPQKVMFGYGKSSAFLKQEVERRGSAKVMVIAGEREMSIAHKVASEIEVAIWHDEVVMHVPIEVAERARAVATDNEIDLLVCVGGGSTIGLAKAIAMTTALPIVAIPTTYAGSEATNVWGLTEAARKTTGVDLKVLPETVIYDSELTMSLPVEMSVASGLNGLAHCIDSLWGPNADPINAVLAAEGIRALNQGLPKIVANPHSIEGRDEALYGAYLAAVSFASAGSGLHHKICHTLGGTFNLPHAQTHATVLPYVLAFNAGDAPEAERRAAAAFGTDTALEGLQRLRLSVNAPKRLSDYGFEASGIAEAVDVTLEKVPANNPRPVTRENLSRLLEAALNGEDPAVLSAVLSN | not soluble
2 | MSLPASARWQALQEVSILNTGAELPWGGKFSGVAKLIDDAFDAIEKDNEKLKGVLQRISGYAVNEDTLRGLIILFSDTHFTRPTYNGEPVHLGAKDILGHVYEYFLSRFAQAEGKRSGQYFTPKSIVSLIVEMLEPYSGRVYDPAMGSGGFFVQTERFITAHQGNINNVSIYGQEFNPTTWKLAAMNMAIRGIDYDFGKYNADSFTQPQHIDKKMDFIMANPHFNDKEWWNESLADDPRWAYGTPPKGNANFAWLQHMIYHLSPNGKIALLLANGSMSSQTNNEGEIRKAIINADLVECMVALPGQLFTNTKIPACIWFLNRNKKRKGEVLFIDARQIGYMKDRVLRDFTADDIAKIADTLHAWQTSDGYEDQAAFCKSATLEEIKNNDFVLTPGRYVGTAEQEDDGVPFAEKMQNLTALLKEQFAKSAELEAEIKKNLGGLGYEEGHHHHHH | not soluble
3 | MDFPPTKLDYHVDMFNLQSHSRFLSLFKAQDGRIALILESTVFHPQGGGQPSDTGLIVFSGSDLKFSVQDVLHYGVFEGSNPESGIDSEKGKEVYLTVDESRRKLNSRQAVEDCSHCYAWHGWNKISDVWLHSAGHLLDMCMQKVGLGHLEPGKGYHFPDGPFVEYKGSVPQEEFQVKQKELEAEANELISKGGKVYAAILPYEEASVLCGGSLPDYISKGSTPRIIKLGDSPGCPCGGTHVSNLSDIISMKITQMRTKKGMTKVFYTIAS | soluble
4 | GPGSMRWPAEPGCGSQGPATPERANKLRFLLVGKTDSGNHPSGWLVARTVRYSTADAEIGPCKGLISHDCKLLLLLCGYFERNPGPLRFVQQNVNGVSAVKLSSLLALDADVYLLPEVKKLREASRICKVPPYTVYCSPPNARGGRVAILVHQRSSIQTRSVTWKALPNDTGIKAVTVKL | not soluble
5 | MGSDKIHHHHHHMAKIGIVICNYNKQNDVIDCIQSVLESKYEDYHIYVVDNASTDESVRLIRECYGSCDRLTLIENSENLGGSGGFNTGLRVAMAEGHMYLMCVDNDALLDENCIGTLSDFLDSHEKAGIAAAKIYHTGQENYVQQYGSFIDYDNYSVDSTYLNHIEDGSMPDVVYSDAVPACALMIRRTVVEQIGVMPEENFLYWDDTEWCVRCREAGYEVASVGAAAASHAMGAKKEDINTFPTYYAWRNWIKFFLDHIDEERLSDMAETFLGSIFEINYTDLYRGEENRSKTVMAALDDALHKVMGKAKEDRIFNLELTYDGLERAIGDKSDIAIMAGEFPLYADALKEKIKVMWPDKRVYIVGLQDIDEAYGTAHFQPDATITICESIFRQDDLSLSTYVMDLDGNVLVDEDDVLMVINYNFSRRSFIFSMKPLFMRLSRQNYGF | not soluble
6 | MITTPNISLTPTVAPPVDFPIIGNCDFQAQLWHLMSLHLQMQKSSAASTSSSSSSSTSSENLKKSPSSVQNTSVFSIDNILNSQKVPKLELENDEDVSSSPSPTCSTTGYTLDSLQNLDRRSLNKKGPSSHNRCVCDKCGKSYATTSNLSRHKQTHRALDSPHAKQCPHCDRVYVSMPALSMHILTHNASHECNVCGKRFSRLWLLQGHLRSHTGLRPFSCAHCGKSFADRSNLRAHMLTHTGDKRFECDKCGRRFALRAYLNRHLETCK | not soluble
7 | MGHHHHHHSHPAPAQLVQKAHELMWYVLVKDQKKMIIWFPDMVKDVIGSYKKWCRSILRRTSLILARVFGLHLRLTSLHTMEFALVKALEPEELDRVALSNRMPMTGLLLMILSLIYVKGRGARESAVWNVLRILGLRPWKKHSTFGDVRKLITEEFVQMNYLKYQRVPYVEPPEYEFFWGSRASREITKMQIMEFLARVFKKDPQA | not soluble
8 | MSLHDLLMIDGLQYSNWSQDIFQQMQAGGLSAVHATIAYHENARETLSRLGEWNRRFETWPELIRPVRTASDIRLAHEEGRVGIFFGFQNCSPIEDDIALVEVFRQLGVFVMQLTYNNQSLLASGCYEREDNGISRFGRQVIAEMNRVGMLIDMSHSAERSTLEAIELSSRPVIISHANPASFHAAKRNKSDAVLRGIAESGGLLGFSTYPFHLKGASDCSLESFCDMVARTADLMGVEHIGIGTDLCQAQPLSVLEWMRNGRWSKDKDYGEGSRDNANWPAPLQWFRDSRDLRNIAQGLRARGFAEHDVGNIMGLNWLRLLETATTAQAEGHHHHHH | soluble
9 | MEAPLYPDLPPDLCAPRGGQPAFWVGPRHLAGDDGRLYDVVADALAGLGWTSLTIVRGRHEPDEEPEDRQVLRSTVLHISPDALRWAQWCAADEPFHLGGLPIAWQISVRAEVSSPLAQWSAYFTRDVPGEAVVDFLVALDASNQPAVSLAGAELVLDAVAAHGWFRDIDQPEAVATDPAFTSHISLGEVPPLIQDGDLRVLSAEDDETGPDGWQAWAEPVLGAPLLWVASFAASVPHDLVAAFAASLSSTAPVLRRVLPEATHERLLRAPAILEHHHHHH | not soluble
10 | MSVIHPLQNLLTSRDGSLVFAIIKNCILSFKYQSPNHWEFAGKWSDDFDKIQESRNTTAKEQQGQSSENENENKKLKSNKGDSIKRTAAKVPSPGLGAPPIYSYIRNLRLTSDESRLIACADSDKSLLVFDVDKTSKNVLKLRKRFCFSKRPNAISIAEDDTTVIIADKFGDVYSIDINSIPEEKFTQEPILGHVSMLTDVHLIKDSDGHQFIITSDRDEHIKISHYPQCFIVDKWLFGHKHFVSSICCGKDYLLLSAGGDDKIFAWDWKTGKNLSTFDYNSLIKPYLNDQHLAPPRFQNENNDIIEFAVSKIIKSKNLPFVAFFVEATKCIIILEMSEKQKGDLALKQIITFPYNVISLSAHNDEFQVTLDNKESSGVQKNFAKFIEYNLNENSFVVNNEKSNEFDSAIIQSVQGDSNLVTKKEEIYPLYNVSSLRKHGEHYSHHHHHH | soluble
11 | GAMGDIDERNIFFELFDRYKLDKFSTWSLQSKKIENDPDFYKIRDDTVRESLFEEWCGE | soluble
12 | MSLTEPRIVATYHIASDAERIEQRALALAIEQSVECPLEAIGDPAIVANIVGRVEDVAELQPGRYAVRIGLAAATAPAEPGQLLNMLFGNSSIQPDIALADVELPAHYLTAFGGPRVGLAGIRTLTGAQSRALTASALKPQGLSPAALASIAHQLALGGVDLIKDDHGLADQAFSPFAERAAAVGKAVREANAARGGRTLYAPNISGTLDDMRRQLGVIRDEGIGAVLVAPMIVGVSNFHAIVKEAAGLVVVAHPAMAGAAKIAAPLLLGRLFRLFGADATVFPNYGGRFAYSTASCLALAQAARDPFGKLNACIPTPAGGIMLQRVNELLRFYGQDVMLLIGGSLLASRERLTEQASRFVNKVADYGQREGHHHHHH | soluble
13 | MSLAGSWETYTMKVPSEKNLPTTKVVLKMPKDVEFQQYEPIPGWKVSTQKHDDKSVSVTWEATDGGIQEGQFQQFTFVAKNPDKAEEAAWDAYQYYKDGSIVEWTGDEDADTPHSITNITSAKQVTDEHGATKTEDDSENSGSSALDITAMVLSAAAIILSVAALVKKKRAEGHHHHHH | soluble
14 | MRVRGIYATALVALALKKGYLLSDLSKTMLSRVEVPVSTRPPNITVKHGEESRDEIVIHAFPYEAGERFEADLLEEVGHAAVRRSLLGLRSVVDARAAEGCRAEGPGGVLIIVKGGECPQPGSMVRVTVVRSPPGSDVVEGRVGVELTGLTVRVMHPGSGVRISRHLTSEDAAKALKAVEASGIDLNQFSVHIRSGARLASEGDISDEIRRLAREAERLWREGPGGEPAVLSRGEYLSLVYLPSTAKHVMDGLRTSLYPTVNNHHSLKSWSSEAEGLLTDFAEEGVREGLWGGEAGDLIVRFISSRLVGRTAVVLHRRPDGETIRLGPFRVSSYRPSSGRGGEIVLERTFRSPGVYDGLGLERRPGDRGVTHVYMGDWLTIHEYYDKSGRLLGVYANINTPPEVGFQGLKYLDLLVDVVKRPGEEPETIDQGELEKACRSGLLTDRLCEEAARQAERASGLLQSRYP | not soluble
15 | MPLSPLDIHNKEFTRGFRGYDEDEVNDFLDQIIKDYEQVIKEKKRIEDTLNNSEERLGHFTNIEETLNKSLIVAQTAAEEVKASAEKEAKLIIREAEKNADRILSDSLSKARKIAIEIEDLKRQSKVFRERLRMLVEAQMDLIKSEDWQQMMAYDVDATELASIKEVESAESEER | not soluble
16 | MQAIQNTQEIRRQADLTKAQWWLQQLCETDRMIVGRKRRDVQKLIHRLLSEPKGTSVPKSSPVNRLFPHPLSFELDPKWPAMDSFYNRISAAMRTIAPKKTASQQVVISCKQLKPAKLDMKTLRQVMEHELAELGDEKLQRMVCSFCYRAQPTHRLYTIEDVIKCQECWRGPFPSRTIFDALITDVAEKWAEKVAKRVECLYGNWDEKLTPMVRMLQNNVLLSEDIAALLRTCTDPHEFKEACEVIIITTIVFYLEYVDFRRSCEALMAIKPTVTYGQLFEIFQIYFPNRAKGIKTGDFL | not soluble
17 | MSLADGKTYKIGAAVYGLKGQFMQNWVRELKEHPAVKDGTVKITVFDGNYDALTQNNQIETMITQHYDAIIFVPIDTKAGVGTVARAMENDIPVIASNTRVAGNKVPYVGNDDVEGGRLQAQAMVDKLKGKGNVVIIQGPIGQSAQIDREKGELEVLSKHPDIKIIEKKTANWSRAEAQTLTEDWLNAHQNGGISGIISQNDDMALGALQAVKSRNLKPADVPITSIDGMPDAIQAAKKNEITTFLQDAQAQSQGALDVALRALAGKDYKPQSVIWQRYAKDVKWGDGTDEGHHHHHH | soluble
18 | MRPKVGVLLKMKREALEELKKYADVEIILYPSGEELKGVIGRFDGIIVSPTTKITREVLENAERLKVISCHSAGYDNIDLEEATKRGIYVTKVSGLLSEAVAEFTVGLIINLMRKIHYADKFIRRGEWESHAKIWTGFKRIESLYGKKVGILGMGAIGKAIARRLIPFGVKLYYWSRHRKVNVEKELKARYMDIDELLEKSDIVILALPLTRDTYHIINEERVKKLEGKYLVNIGRGALVDEKAVTEAIKQGKLKGYATDVFEKEPVREHELFKYEWETVLTPHYAGLALEAQEDVGFRAVENLLKVLRGEVPEDLVNKEVLEVRPIENVKML | soluble
19 | MSLQFSVLASGSTGNAFYLETEDHAFLVDAGLSGKAMDGLMAQIGRKLDDVDGIFVTHEHSDHIKGLGVVARKYKLPIYANEKTWKAMENQIGKIDTDQKFVFPMETVKSFGGLDVESFGVSHDAAEPMFYVFHYSGRKLALMTDTGYVSDRMKGIIRSANVFVFESNHDVGMLQMGRYPWSIKRRILSDVGHVSNEDAALAMTDVIGDETSRIYLAHLSQDNNMKELARMSVQQTLASKGFVTGETFDLYDTDPKKATPLWLYNFSMLEHHHHHH | not soluble
20 | MSANDFKPETWTSSANEALRVSIVGENAVQFSPLFTYPIYGDSEKIYGYKDLIIHLAFDSVTFKPYVNVKYSAKLGDDNIVDVEKKLLSFLPKDDVIVRDEAKWVDCFAEERKTHNLSDVFEKVSEYSLNGEEFVVYKSSLVDDFARRMHRRVQIFSLLFIEAANYIDETDPSWQIYWLLNKKTKELIGFVTTYKYWHYLGAKSFDEDIDKKFRAKISQFLIFPPYQNKGHGSCLYEAIIQSWLEDKSITEITVEDPNEAFDDLRDRNDIQRLRKLGYDAVFQKHSDLSDEFLESSRKSLKLEERQFNRLVEMLLLLNNSPSFELKVKNRLYIKNYDALDQTDPEKAREALQNSFILVKDDYRRIIESINKSQG | not soluble
21 | MKRVEDWIKQAERDLEEARYAKSGGYYELACFLSQQCAEKAVKGLLQFQGIEKRGHSISHLLTNPPADILQCATFLDKQYTPSRYPDVYYEGAPYEYYTERDADECINCAIRILNWVKGQIK | soluble
